# Assay results from the RNAGym collection of RNA variant scans (doi:10.1073/pnas.2313332121).
# Fewer inactive variants are shown than the library holds.
# B1: TPR 5TU (parent)
# chain: GGAUCUUCUCGAUCUAACAAAAAAGACAAAUCUGCCACAAAGCUUGAGAGCAUCUUCGGAUGCAGAGGCGGCAGCCUUCGGUGGCGCGAUAGCGCCAACGUUCUCAACUAUGACACGCAAAACGCGUGCUCCGUUGAAUGGAGUUUAUCAUG
# Variants of: B1
# Experiment: polymerase ribozyme fitness, log enrichment relative to wild type (log ratio); higher = more active; in vitro selection for triplet polymerase activity
# How it was run: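 A single round of triplicate in vitro selection, including frozen incubation at −7 °C, was applied to PCR-built, transcribed mutant libraries of each subunit of a heterodimeric triplet polymerase ribozyme. Illumina sequencing of input and output libraries retained genotypes with ≥10 input reads and ≥1 read per output. Fitness is the base-2 logarithm of genotype enrichment divided by wild-type enrichment, from inverse-variance-weighted replicate averages.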
row,Variant,polymerase ribozyme fitness (log ratio)
1,A28G U56A G136C,≤ -4.2
2,A28C G86U,≤ -4.2
3,C27U G86A,-2.94
4,A28U G83C G92U C96U,≤ -4.2
5,A28U A41C C96A G141C,-4.02
6,A28C A52U C87U,≤ -4.2
7,C27U G84A A89G,-3.59
8,A28C C36U A39U U55A A66U C79U A91U C93A,≤ -4.2
9,A28C C43U U56A A107C,≤ -4.2
10,A28U A30U A39U G50C C57G C75G U82A G83C G124U,≤ -4.2
11,C27U C32G C36U C87G,≤ -4.2
12,A28C U44A G59A C125A G143C,≤ -4.2
13,A28C G42C C76G C79G G86C U90G A97G U145C,≤ -4.2
14,A28U C96A,-3.93
15,A28U C96U,-3.66
16,C27U A47C U56G C76U U78A G94A A97U C118U,≤ -4.2
17,A28G A37C U55A U90C A91G,≤ -4.2
18,A28C U61A U134A U148C,≤ -4.2
19,A28U G92A G140C,-3.61
20,C27U C43A A97U A150G,≤ -4.2
21,A28U A29U A37G A66U A73U U78G G84A,≤ -4.2
22,A28G U56A,-3.7
23,A28G A107G U144C,≤ -4.2
24,C27U A37C C51U C57U C95U C125A,-4.06

row,Variant,polymerase ribozyme fitness (log ratio)
1,A28U A30C C32A A47C G58C C85U A107U,≤ -4.2
2,A29C A41G G59C G62C G100A G141C,≤ -4.2
3,C27U G86A U145A G152A,≤ -4.2
4,C27U A66G G88A G136A,≤ -4.2
5,A28G G83C,-4.1
6,A28C U31G A41U G65A C85G G88U C96U C103U U135G,≤ -4.2
7,A28G C79G C85U A115C U151A,≤ -4.2
8,A28G U55G G58C G88C G140U,≤ -4.2
9,A28U A47C U130G,≤ -4.2
10,A28U A73G,≤ -4.2
11,A28U C87G C118G,≤ -4.2
12,A28U U90G C99U G141U U151G,≤ -4.2
13,C27G G83A A89C,-3.98
14,A28U U61C G68A G86A A89U G117C,≤ -4.2
15,C27U U33G C95U,-3.46
16,C27U A52C A60U C76U G84U C96G U109C,≤ -4.2
17,A28C C85G A106C A113C,≤ -4.2
18,A28U G48A G74C C96U C131A,≤ -4.2
19,A28U A39G A66G C76A G81C,≤ -4.2
20,A28U A41U C79G G86A G136A G152A,≤ -4.2
21,A28U U55A,-4.13
22,C27U U33A G92C,-3.92
23,A28G C43U A113U G117A A138G,≤ -4.2
24,C27U A28G A60G A98U G100A U135G,≤ -4.2

row,Variant,polymerase ribozyme fitness (log ratio)
1,A28C C69U,≤ -4.2
2,A28C C85A,≤ -4.2
3,A28G G34U G80A U102A C108G,≤ -4.2
4,A28U A39C A98G G143U U144G U146G,≤ -4.2
5,A29C A52C U53A C54U C75G C129A,≤ -4.2
6,A28G C54U C93A U127A,≤ -4.2
7,A28U A52G C85U G88A C95G U109G,≤ -4.2
8,A28G U44G A91U C99U,≤ -4.2
9,A28U G50A U55C U139G,≤ -4.2
10,A29C A52G U55A C75G A106U A110G A121U U127A,≤ -4.2
11,A29C C95A G117U G126U G141C G143C,≤ -4.2
12,A28C U31G C125G,≤ -4.2
13,A28C U151A,≤ -4.2
14,A28U A37U A73G G92U A106G C118G,≤ -4.2
15,C27U C85A,-2.04
16,C27U C85U,-2.83
17,C27U U31A G48U C85U,-2.25
18,A28C C87G G117C A137U,≤ -4.2
19,A29C C35U G50C G58U U61G C96A U134A,≤ -4.2
20,A29C A49U A52C C54A A89C C123A U135G G140C,≤ -4.2
21,A29C A40U A41C G84A G141A,≤ -4.2
22,A28G A41C C96A U145G,≤ -4.2
23,C27U C35A G133U C149G,≤ -4.2
24,C27U C51G,-3.3

row,Variant,polymerase ribozyme fitness (log ratio)
1,A28C C43U C76G A110G A138U,≤ -4.2
2,C27U G58C U139C,≤ -4.2
3,C27U U55A U56A,-2.25
4,C27U G58A A60G G84U,-1.42
5,C27U C63U C87A G141U,≤ -4.2
6,A28G C32U G86C A115G U144G,≤ -4.2
7,C27U G50C C114G,≤ -4.2
8,C27U G50C G141A,-4.12
9,A28C U82A,≤ -4.2
10,A28U A37C C79U C87U,-3.89
11,A28G G80A G141A,≤ -4.2
12,A28U C54U,-3.76
13,A28U G68U C99U A110G,≤ -4.2
14,C27G U53A U102A,≤ -4.2
15,A28U A49U U139G,≤ -4.2
16,C27U G70A C87A,≤ -4.2
17,A28U U55A C72U U90C A115G,≤ -4.2
18,C27U C75G C85A C105G U130G U146G,≤ -4.2
19,A29C A39U C96A,≤ -4.2
20,A29C A40G C123A U127A,≤ -4.2
21,A28U G50C G83C A110C,≤ -4.2
22,C27U U31C A52C U78C U101A C125G,≤ -4.2
23,C27G G71A A138C A142C,≤ -4.2
24,C27U A47C G128U,≤ -4.2

row,Variant,polymerase ribozyme fitness (log ratio)
1,A28U A40U G48A A119U U127C U146G,≤ -4.2
2,A28U G67U C103A,≤ -4.2
3,A28C A49C C96U G133A U134G,-4.14
4,C27U C38U A52U C85G G88U U102G,≤ -4.2
5,A28G A52C U55A G67C C149G,≤ -4.2
6,A28G U44A G83C A147G,≤ -4.2
7,C27U A47G A52C G83A U146G,-3.62
8,A28C G65U G68A A91U,≤ -4.2
9,A29C C96G,-4.15
10,A28C U78G,≤ -4.2
11,A29C A41C G62A G84A U90A C118G,≤ -4.2
12,A28G G50C G81C C95G C96U A98C A113U G143U,≤ -4.2
13,A29C A30C G65A C93U G136A,≤ -4.2
14,A28U C75U G84U G86A C93U A106G A113U,≤ -4.2
15,C27U G92U,-1.78
16,A28G C93U U127C,≤ -4.2
17,A29C A41G A97C A122U,≤ -4.2
18,A28U A40C C75G C87A C95U C105G A121U,≤ -4.2
19,A28U A41U C57A G70C G88U A89U C95A,≤ -4.2
20,A28U C93U C118U A121G,≤ -4.2
21,C27U C76U,-1.42
22,C27U C76A,-2.31
23,C27U G62A A97U A98C,-3.33
24,A28G C75G G88A U139G G141C,-3.97

row,Variant,polymerase ribozyme fitness (log ratio)
1,A28U G50A C132U,≤ -4.2
2,A28C G46C G84A C85U,≤ -4.2
3,A29C C57A G68A G88C C114U G117C A122G,≤ -4.2
4,A29C C36A U55A U61G C87A,≤ -4.2
5,C27U A28G U53G A73G C85U G86C A120U C132U,≤ -4.2
6,A28G U61G C95A A97U A107U,≤ -4.2
7,A29C A30U A97U C103U C116G G133A,≤ -4.2
8,A28U C99A,-4.15
9,A28G U53A,-3.62
10,A28U A29G C75G G81U C85G A106C C129A,≤ -4.2
11,A28G G42U,≤ -4.2
12,C27U G50U U55A C96A A110G G133U,-3.94
13,A28U A49G C54A C93U U144C,≤ -4.2
14,A28U G84U,≤ -4.2
15,C27U C43U C95U A119U G143C U144C,-4.15
16,A28C G83C G128U,≤ -4.2
17,C27U G59A G67C G86C C99U,≤ -4.2
18,C27U G83A C95U U102A G126C,-3.56
19,C27U C36A C108G U139G U145C,-3.87
20,A28U A66C C72U A91C C114U,≤ -4.2
21,A29C A39U A52C U101G C125G G126A G143U U146C,≤ -4.2
22,C27U A138G,-3.72
23,A28U G42C U44C C75G C96A A115G,≤ -4.2
24,C27G G67C G141A A147U G152A,≤ -4.2

row,Variant,polymerase ribozyme fitness (log ratio)
1,A28G A91C G126A,≤ -4.2
2,A28G G42C C43A U55A,≤ -4.2
3,C27U G58C C123U,-1.57
4,A28C G84A G94U C96G C108G U139C G143C,≤ -4.2
5,C27U A29U U144C,≤ -4.2
6,C27U A37U C99G,-3.64
7,C27U A40C G59C G92C A98G C108U C132A U151G,≤ -4.2
8,A28G A49U U56A A66U U90G A106U C108G A119G,≤ -4.2
9,A28U C35G C54A C79A G80C A89C G94A,≤ -4.2
10,C27U C99G G133U G141A C149G,≤ -4.2
11,C27U C57A C95U,-2.1
12,A28G U55A,-2.49
13,A28U C54U C76A C114U,-3.97
14,A28U G50A C85G,≤ -4.2
15,A28C G46C C76G U82A A89C G124A,≤ -4.2
16,A28G G140A,-4.13
17,A28U A29G A30U U61A G80C C93A A113U G140U G141A,≤ -4.2
18,A28U C35U,-4.12
19,C27U C93U U104A,-3.11
20,A28G G94A,-3.42
21,C27U C36U,-2.88
22,A28U U77C,≤ -4.2
23,A28U A66C G83U A122G,-4.16
